Patent publication US20230406885A1, “CYCLIC PEPTIDES FOR TRAPPING INTERLEUKIN-1 BETA” (MERCK SHARP & DOHME LLC, priority 2022, published 2023)
*1 amine or outer side, *2 acyl side, *3 side chain or, on linkers, in order; H or OH if unused. [ ]: non-standard residue; d: D form. TyrEtNAc = L-tyrosine O-ethyl acetamide, (S)-3-(4-(2-acetamidoethoxy)phenyl)-2-aminopropanoic acid, CC(=O)NCCOc1ccc(C[C@H](N[*:1])C(=O)[*:2])cc1; 3AzaPhe4AcPip = (S)-3-(6-(4-acetylpiperazin-1-yl)pyridin-3-yl)-2-aminopropanoic acid, CC(=O)N1CCN(c2ccc(C[C@H](N[*:1])C(=O)[*:2])cn2)CC1; 3Pal4Ph4CO2H = (S)-4-(5-(2-amino-2-carboxyethyl)pyridin-2-yl)benzoic acid, O=C([C@H](Cc1ccc(-c2ccc(C(=O)[*:3])cc2)nc1)N[*:1])[*:2]; hF3CF3 = (S)-2-amino-4-(3-(trifluoromethyl)phenyl)butanoic acid, O=C([C@H](CCc1cccc(C(F)(F)F)c1)N[*:1])[*:2]; hF2CF3 = (S)-2-amino-4-(2-(trifluoromethyl)phenyl)butanoic acid, O=C([C@H](CCc1ccccc1C(F)(F)F)N[*:1])[*:2]; Pro(trans-4-NH2) = O=C([C@@H]1C[C@@H](N[*:3])CN1[*:1])[*:2]; Bip(4'-COOH) = N[C@@H](Cc1ccc(-c2ccc(C(=O)O)cc2)cc1)C(=O)O; 1Nal(3S-Me) = C[C@@H](c1cccc2ccccc12)[C@H](N)C(=O)O; hPhe(4-CF3) = N[C@@H](CCc1ccc(C(F)(F)F)cc1)C(=O)O; Phe(4-COOH) = N[C@@H](Cc1ccc(C(=O)O)cc1)C(=O)O; h3Pal(5-CN) = N#Cc1cncc(CC[C@H](N)C(=O)O)c1; Ala(4-THP) = N[C@@H](CC1CCOCC1)C(=O)O; hTyr = N[C@@H](CCc1ccc(O)cc1)C(=O)O; 4Pal = N[C@@H](Cc1ccncc1)C(=O)O; dDab = NCC[C@@H](N)C(=O)O; dNMeA = CN[C@H](C)C(=O)O; Dab = NCC[C@H](N)C(=O)O; Dap = NC[C@H](N)C(=O)O; Aib = CC(C)(N)C(=O)O

B1: SEQ ID NO: 100 (peptide)
peptide: cyclo([TyrEtNAc]W[Phe(4-COOH)]G[Pro(trans-4-NH2)][1Nal(3S-Me)]D[dNMeA]G[Bip(4'-COOH)][4Pal][Dab][dA][hPhe(4-CF3)])
SMILES: CC(=O)NCCOc1ccc(C[C@@H]2NC(=O)[C@H](CCc3ccc(C(F)(F)F)cc3)NC(=O)[C@@H](C)NC(=O)[C@H](CCN)NC(=O)[C@H](Cc3ccncc3)NC(=O)[C@H](Cc3ccc(-c4ccc(C(=O)O)cc4)cc3)NC(=O)CNC(=O)[C@@H](C)N(C)C(=O)[C@H](CC(=O)O)NC(=O)[C@H]([C@@H](C)c3cccc4ccccc34)NC(=O)[C@@H]3C[C@@H](N)CN3C(=O)CNC(=O)[C@H](Cc3ccc(C(=O)O)cc3)NC(=O)[C@H](Cc3c[nH]c4ccccc34)NC2=O)cc1
B2: SEQ ID NO: 104 (peptide)
peptide: cyclo([TyrEtNAc]W[Phe(4-COOH)]G[Pro(trans-4-NH2)][1Nal(3S-Me)]D[dNMeA]G[Bip(4'-COOH)][4Pal]S[dA][hF3CF3])
SMILES: CC(=O)NCCOc1ccc(C[C@@H]2NC(=O)[C@H](CCc3cccc(C(F)(F)F)c3)NC(=O)[C@@H](C)NC(=O)[C@H](CO)NC(=O)[C@H](Cc3ccncc3)NC(=O)[C@H](Cc3ccc(-c4ccc(C(=O)O)cc4)cc3)NC(=O)CNC(=O)[C@@H](C)N(C)C(=O)[C@H](CC(=O)O)NC(=O)[C@H]([C@@H](C)c3cccc4ccccc34)NC(=O)[C@@H]3C[C@@H](N)CN3C(=O)CNC(=O)[C@H](Cc3ccc(C(=O)O)cc3)NC(=O)[C@H](Cc3c[nH]c4ccccc34)NC2=O)cc1
B3: SEQ ID NO: 103 (peptide)
peptide: cyclo([TyrEtNAc]W[Phe(4-COOH)]G[Pro(trans-4-NH2)][1Nal(3S-Me)]D[dNMeA]G[Bip(4'-COOH)][4Pal]S[dA][hF2CF3])
SMILES: CC(=O)NCCOc1ccc(C[C@@H]2NC(=O)[C@H](CCc3ccccc3C(F)(F)F)NC(=O)[C@@H](C)NC(=O)[C@H](CO)NC(=O)[C@H](Cc3ccncc3)NC(=O)[C@H](Cc3ccc(-c4ccc(C(=O)O)cc4)cc3)NC(=O)CNC(=O)[C@@H](C)N(C)C(=O)[C@H](CC(=O)O)NC(=O)[C@H]([C@@H](C)c3cccc4ccccc34)NC(=O)[C@@H]3C[C@@H](N)CN3C(=O)CNC(=O)[C@H](Cc3ccc(C(=O)O)cc3)NC(=O)[C@H](Cc3c[nH]c4ccccc34)NC2=O)cc1
B4: SEQ ID NO: 102 (peptide)
peptide: cyclo([TyrEtNAc]W[Phe(4-COOH)]G[Pro(trans-4-NH2)][1Nal(3S-Me)]D[dNMeA]G[Bip(4'-COOH)][4Pal]G[dDab][h3Pal(5-CN)])
SMILES: CC(=O)NCCOc1ccc(C[C@@H]2NC(=O)[C@H](CCc3cncc(C#N)c3)NC(=O)[C@@H](CCN)NC(=O)CNC(=O)[C@H](Cc3ccncc3)NC(=O)[C@H](Cc3ccc(-c4ccc(C(=O)O)cc4)cc3)NC(=O)CNC(=O)[C@@H](C)N(C)C(=O)[C@H](CC(=O)O)NC(=O)[C@H]([C@@H](C)c3cccc4ccccc34)NC(=O)[C@@H]3C[C@@H](N)CN3C(=O)CNC(=O)[C@H](Cc3ccc(C(=O)O)cc3)NC(=O)[C@H](Cc3c[nH]c4ccccc34)NC2=O)cc1
B5: SEQ ID NO: 106 (peptide)
peptide: cyclo([TyrEtNAc]W[Phe(4-COOH)]G[Pro(trans-4-NH2)][1Nal(3S-Me)]D[dNMeA]G[Bip(4'-COOH)][Ala(4-THP)]G[dDab][h3Pal(5-CN)])
SMILES: CC(=O)NCCOc1ccc(C[C@@H]2NC(=O)[C@H](CCc3cncc(C#N)c3)NC(=O)[C@@H](CCN)NC(=O)CNC(=O)[C@H](CC3CCOCC3)NC(=O)[C@H](Cc3ccc(-c4ccc(C(=O)O)cc4)cc3)NC(=O)CNC(=O)[C@@H](C)N(C)C(=O)[C@H](CC(=O)O)NC(=O)[C@H]([C@@H](C)c3cccc4ccccc34)NC(=O)[C@@H]3C[C@@H](N)CN3C(=O)CNC(=O)[C@H](Cc3ccc(C(=O)O)cc3)NC(=O)[C@H](Cc3c[nH]c4ccccc34)NC2=O)cc1
B6: SEQ ID NO: 1 (peptide)
peptide: cyclo([3AzaPhe4AcPip]W[Phe(4-COOH)]G[Pro(trans-4-NH2)][1Nal(3S-Me)]D[dNMeA]G[Bip(4'-COOH)][4Pal][Dap][dA][h3Pal(5-CN)])
SMILES: CC(=O)N1CCN(c2ccc(C[C@@H]3NC(=O)[C@H](CCc4cncc(C#N)c4)NC(=O)[C@@H](C)NC(=O)[C@H](CN)NC(=O)[C@H](Cc4ccncc4)NC(=O)[C@H](Cc4ccc(-c5ccc(C(=O)O)cc5)cc4)NC(=O)CNC(=O)[C@@H](C)N(C)C(=O)[C@H](CC(=O)O)NC(=O)[C@H]([C@@H](C)c4cccc5ccccc45)NC(=O)[C@@H]4C[C@@H](N)CN4C(=O)CNC(=O)[C@H](Cc4ccc(C(=O)O)cc4)NC(=O)[C@H](Cc4c[nH]c5ccccc45)NC3=O)cn2)CC1
B7: SEQ ID NO: 10 (peptide)
peptide: cyclo([3Pal4Ph4CO2H]W[Phe(4-COOH)]G[Pro(trans-4-NH2)][1Nal(3S-Me)]D[dNMeA]G[3Pal4Ph4CO2H]W[Dap][dA][hTyr])
SMILES: C[C@@H]1C(=O)NCC(=O)N[C@@H](Cc2ccc(-c3ccc(C(=O)O)cc3)nc2)C(=O)N[C@@H](Cc2c[nH]c3ccccc23)C(=O)N[C@@H](CN)C(=O)N[C@H](C)C(=O)N[C@@H](CCc2ccc(O)cc2)C(=O)N[C@@H](Cc2ccc(-c3ccc(C(=O)O)cc3)nc2)C(=O)N[C@@H](Cc2c[nH]c3ccccc23)C(=O)N[C@@H](Cc2ccc(C(=O)O)cc2)C(=O)NCC(=O)N2C[C@H](N)C[C@H]2C(=O)N[C@@H]([C@@H](C)c2cccc3ccccc23)C(=O)N[C@@H](CC(=O)O)C(=O)N1C
B8: SEQ ID NO: 107 (peptide)
peptide: cyclo([TyrEtNAc]W[Phe(4-COOH)]G[Pro(trans-4-NH2)][1Nal(3S-Me)]D[dNMeA]G[Bip(4'-COOH)]KG[Aib][hTyr])
SMILES: CC(=O)NCCOc1ccc(C[C@@H]2NC(=O)[C@H](CCc3ccc(O)cc3)NC(=O)C(C)(C)NC(=O)CNC(=O)[C@H](CCCCN)NC(=O)[C@H](Cc3ccc(-c4ccc(C(=O)O)cc4)cc3)NC(=O)CNC(=O)[C@@H](C)N(C)C(=O)[C@H](CC(=O)O)NC(=O)[C@H]([C@@H](C)c3cccc4ccccc34)NC(=O)[C@@H]3C[C@@H](N)CN3C(=O)CNC(=O)[C@H](Cc3ccc(C(=O)O)cc3)NC(=O)[C@H](Cc3c[nH]c4ccccc34)NC2=O)cc1
B9: SEQ ID NO: 101 (peptide)
peptide: cyclo([TyrEtNAc]W[Phe(4-COOH)]G[Pro(trans-4-NH2)][1Nal(3S-Me)]D[dNMeA]G[Bip(4'-COOH)][4Pal][Dab][dA][hTyr])
SMILES: CC(=O)NCCOc1ccc(C[C@@H]2NC(=O)[C@H](CCc3ccc(O)cc3)NC(=O)[C@@H](C)NC(=O)[C@H](CCN)NC(=O)[C@H](Cc3ccncc3)NC(=O)[C@H](Cc3ccc(-c4ccc(C(=O)O)cc4)cc3)NC(=O)CNC(=O)[C@@H](C)N(C)C(=O)[C@H](CC(=O)O)NC(=O)[C@H]([C@@H](C)c3cccc4ccccc34)NC(=O)[C@@H]3C[C@@H](N)CN3C(=O)CNC(=O)[C@H](Cc3ccc(C(=O)O)cc3)NC(=O)[C@H](Cc3c[nH]c4ccccc34)NC2=O)cc1
B10: SEQ ID NO: 109 (peptide)
peptide: cyclo([TyrEtNAc]W[Phe(4-COOH)]G[Pro(trans-4-NH2)][1Nal(3S-Me)]D[dNMeA]G[Bip(4'-COOH)]KG[dNMeA][hTyr])
SMILES: CC(=O)NCCOc1ccc(C[C@@H]2NC(=O)[C@H](CCc3ccc(O)cc3)NC(=O)[C@@H](C)N(C)C(=O)CNC(=O)[C@H](CCCCN)NC(=O)[C@H](Cc3ccc(-c4ccc(C(=O)O)cc4)cc3)NC(=O)CNC(=O)[C@@H](C)N(C)C(=O)[C@H](CC(=O)O)NC(=O)[C@H]([C@@H](C)c3cccc4ccccc34)NC(=O)[C@@H]3C[C@@H](N)CN3C(=O)CNC(=O)[C@H](Cc3ccc(C(=O)O)cc3)NC(=O)[C@H](Cc3c[nH]c4ccccc34)NC2=O)cc1
B11: SEQ ID NO: 108 (peptide)
peptide: cyclo([TyrEtNAc]W[Phe(4-COOH)]G[Pro(trans-4-NH2)][1Nal(3S-Me)]D[dNMeA]G[Bip(4'-COOH)]KG[dA][hTyr])
SMILES: CC(=O)NCCOc1ccc(C[C@@H]2NC(=O)[C@H](CCc3ccc(O)cc3)NC(=O)[C@@H](C)NC(=O)CNC(=O)[C@H](CCCCN)NC(=O)[C@H](Cc3ccc(-c4ccc(C(=O)O)cc4)cc3)NC(=O)CNC(=O)[C@@H](C)N(C)C(=O)[C@H](CC(=O)O)NC(=O)[C@H]([C@@H](C)c3cccc4ccccc34)NC(=O)[C@@H]3C[C@@H](N)CN3C(=O)CNC(=O)[C@H](Cc3ccc(C(=O)O)cc3)NC(=O)[C@H](Cc3c[nH]c4ccccc34)NC2=O)cc1
B12: SEQ ID NO: 105 (peptide)
peptide: cyclo([TyrEtNAc]W[Phe(4-COOH)]G[Pro(trans-4-NH2)][1Nal(3S-Me)]D[dNMeA]G[Bip(4'-COOH)][4Pal]S[dA][hPhe(4-CF3)])
SMILES: CC(=O)NCCOc1ccc(C[C@@H]2NC(=O)[C@H](CCc3ccc(C(F)(F)F)cc3)NC(=O)[C@@H](C)NC(=O)[C@H](CO)NC(=O)[C@H](Cc3ccncc3)NC(=O)[C@H](Cc3ccc(-c4ccc(C(=O)O)cc4)cc3)NC(=O)CNC(=O)[C@@H](C)N(C)C(=O)[C@H](CC(=O)O)NC(=O)[C@H]([C@@H](C)c3cccc4ccccc34)NC(=O)[C@@H]3C[C@@H](N)CN3C(=O)CNC(=O)[C@H](Cc3ccc(C(=O)O)cc3)NC(=O)[C@H](Cc3c[nH]c4ccccc34)NC2=O)cc1

The binders below were run against Recombinant human IL-1β (BioLegend 579404) (human, UniProt P01584 117-269) (assay: cell-based or functional assay).

Row | Binder | MRC5 IC50
1 | B1 | 0.274 nM
2 | B2 | 0.041 nM
3 | B3 | 0.066 nM
4 | B4 | 0.0421 nM
5 | B5 | 0.0263 nM
6 | B6 | 0.0365 nM
7 | B7 | 0.256 nM
8 | B8 | 0.0582 nM
9 | B9 | 0.247 nM
10 | B10 | 0.0775 nM
11 | B11 | 0.102 nM
12 | B12 | 0.091 nM
